Data on one molecule can be found in patent publication US20240255522A1.

Conditions in all cases: modification not given
Assay [1] has as its target HLA-DRB1*11:01 MHCII molecule (human). As to the kind of experiment: competition ELISA; 25 nM huCLIP-bio. Background: ELISA stands for enzyme-linked immunosorbent assay.
Assay [2] addresses HLA-DRB1*08:01 MHCII molecule (human). Kind of assay: competition ELISA; 25 nM huCLIP-bio.
The target of assay [3] is HLA-DRB1*09:01 MHCII molecule (human). As to the kind of experiment: competition ELISA; 25 nM huCLIP-bio.
The target in assay [4] is HLA-DRB1*15:01 MHCII molecule (human). As to the kind of experiment: competition ELISA; 25 nM huCLIP-bio.
The target in assay [5] is HLA-DRB1*04:01 MHCII molecule (human). As to the kind of experiment: competition ELISA; 25 nM huCLIP-bio.
In assay [6] the target is HLA-DRB1*11:01 MHCII molecule (human). Kind of assay: competition ELISA; 50 nM huCLIP-bio.
For assay [7], the target named is HLA-DRB1*08:01 MHCII molecule (human). Kind of assay: competition ELISA; 50 nM huCLIP-bio.
Assay [8] deals with HLA-DRB1*09:01 MHCII molecule (human). Kind of assay: competition ELISA; 50 nM huCLIP-bio.
Assay [9] concerns the target HLA-DRB1*15:01 MHCII molecule (human). As to the kind of experiment: competition ELISA; 50 nM huCLIP-bio.
Assay [10] has as its target HLA-DRB1*04:01 MHCII molecule (human). Kind of assay: competition ELISA; 50 nM huCLIP-bio.

In the case of PVSQMRMATPLLMRP [mCLIP], the IC50 in assay [1] was found to be 22.6 nM; in [2] it was 36.6 nM; in [3] it was 25 nM; in [4], 14.6 nM; in assay [5], 31.2 nM; in [6], 36.8 nM. The IC50 is 69.4 nM in [7], 60.7 nM in [8], 46.1 nM in assay [9] and 36.5 nM in assay [10].

A word on the IC50: it is the concentration that inhibits the measured activity by half. High values mean weaker potency, low ones greater potency.
